Data on 1 molecule can be found in patent US20030143595A1 (Harvard, published 2003).

For the assay, the target named is T1, murine HIP polypeptide (mouse hedgehog interacting protein) (mouse, UniProt Q7TN16 16-700).
T1 construct: In the expression cloning screen the protein was expressed in cells from a mouse limb bud cDNA library plasmid; also called Mouse HIP; mouse HIP clone
T1 sequence: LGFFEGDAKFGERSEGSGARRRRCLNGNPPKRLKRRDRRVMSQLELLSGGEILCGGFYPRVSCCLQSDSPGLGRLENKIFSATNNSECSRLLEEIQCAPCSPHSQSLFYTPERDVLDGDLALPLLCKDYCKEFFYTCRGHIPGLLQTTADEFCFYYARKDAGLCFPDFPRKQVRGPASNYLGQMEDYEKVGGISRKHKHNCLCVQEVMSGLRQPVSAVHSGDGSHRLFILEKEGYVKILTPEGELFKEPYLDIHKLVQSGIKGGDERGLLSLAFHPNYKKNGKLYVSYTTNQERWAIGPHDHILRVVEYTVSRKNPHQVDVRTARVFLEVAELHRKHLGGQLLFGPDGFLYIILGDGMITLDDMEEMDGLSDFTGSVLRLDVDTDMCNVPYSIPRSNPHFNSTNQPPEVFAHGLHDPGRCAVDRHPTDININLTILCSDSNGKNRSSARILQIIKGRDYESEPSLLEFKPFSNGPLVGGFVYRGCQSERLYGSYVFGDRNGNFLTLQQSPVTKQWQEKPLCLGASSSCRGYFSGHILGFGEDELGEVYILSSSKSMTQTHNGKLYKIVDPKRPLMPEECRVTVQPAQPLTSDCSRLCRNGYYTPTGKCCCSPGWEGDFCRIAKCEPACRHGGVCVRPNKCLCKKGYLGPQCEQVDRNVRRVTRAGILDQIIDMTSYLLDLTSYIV
The experiment in a line: ligand-receptor binding study.

B1: Desert hedgehog (Dhh) (ligand)
chain: not shown
Regarding B1, the Kd (commonly the concentration at which binding is half-saturated) is approximately 1 nM.
